± gives the uncertainty stated by the source.

The data set is described as follows: abundance fitness (aPCA) (normalised: wild type 0, dead -1); higher = more abundant; growth selection in yeast, the domain comes from the species named. Particulars: Homo sapiens.
Turning to “Lipoamide acyltransferase component of branched-chain alpha-keto acid dehydrogenase complex, mitochondrial I200R, P11182”, the abundance fitness was -0.764 ± 0.045. Substance “Lipoamide acyltransferase component of branched-chain alpha-keto acid dehydrogenase complex, mitochondrial I200S, P11182” had an abundance fitness of -0.76 ± 0.042. Substance “Lipoamide acyltransferase component of branched-chain alpha-keto acid dehydrogenase complex, mitochondrial I200T, P11182” came in with an abundance fitness of -0.625 ± 0.06. To “Lipoamide acyltransferase component of branched-chain alpha-keto acid dehydrogenase complex, mitochondrial I200V, P11182” belongs -0.021 ± 0.039. For the substance “Lipoamide acyltransferase component of branched-chain alpha-keto acid dehydrogenase complex, mitochondrial I200W, P11182”, the abundance fitness is -0.852 ± 0.063.

Regarding “Lipoamide acyltransferase component of branched-chain alpha-keto acid dehydrogenase complex, mitochondrial I205A, P11182”, the abundance fitness was -0.356 ± 0.041.

For “Lipoamide acyltransferase component of branched-chain alpha-keto acid dehydrogenase complex, mitochondrial I205C, P11182”, the abundance fitness is -0.16 ± 0.052. To “Lipoamide acyltransferase component of branched-chain alpha-keto acid dehydrogenase complex, mitochondrial I205E, P11182” belongs -0.289 ± 0.047; to “Lipoamide acyltransferase component of branched-chain alpha-keto acid dehydrogenase complex, mitochondrial I205G, P11182”, -0.359 ± 0.037.

The substance “Lipoamide acyltransferase component of branched-chain alpha-keto acid dehydrogenase complex, mitochondrial I205H, P11182” gave an abundance fitness of -0.408 ± 0.064. To “Lipoamide acyltransferase component of branched-chain alpha-keto acid dehydrogenase complex, mitochondrial I205K, P11182” belongs -0.302 ± 0.052; to “Lipoamide acyltransferase component of branched-chain alpha-keto acid dehydrogenase complex, mitochondrial I205L, P11182”, -0.086 ± 0.037. To “Lipoamide acyltransferase component of branched-chain alpha-keto acid dehydrogenase complex, mitochondrial I205M, P11182” belongs -0.28 ± 0.054; to “Lipoamide acyltransferase component of branched-chain alpha-keto acid dehydrogenase complex, mitochondrial I205N, P11182”, -0.551 ± 0.11. On to “Lipoamide acyltransferase component of branched-chain alpha-keto acid dehydrogenase complex, mitochondrial I205Q, P11182”, for which the abundance fitness is -0.302 ± 0.048.

On to “Lipoamide acyltransferase component of branched-chain alpha-keto acid dehydrogenase complex, mitochondrial I205R, P11182”, for which the abundance fitness is -0.343 ± 0.035. In turn, “Lipoamide acyltransferase component of branched-chain alpha-keto acid dehydrogenase complex, mitochondrial I205S, P11182” gave an abundance fitness of -0.332 ± 0.05. To “Lipoamide acyltransferase component of branched-chain alpha-keto acid dehydrogenase complex, mitochondrial I205T, P11182” belongs -0.337 ± 0.057; to “Lipoamide acyltransferase component of branched-chain alpha-keto acid dehydrogenase complex, mitochondrial I205V, P11182”, 0.028 ± 0.042. To “Lipoamide acyltransferase component of branched-chain alpha-keto acid dehydrogenase complex, mitochondrial I205W, P11182” belongs -0.629 ± 0.056; to “Lipoamide acyltransferase component of branched-chain alpha-keto acid dehydrogenase complex, mitochondrial I205Y, P11182”, -0.349 ± 0.15; to “Lipoamide acyltransferase component of branched-chain alpha-keto acid dehydrogenase complex, mitochondrial K187A, P11182”, -0.14 ± 0.04.

As to “Lipoamide acyltransferase component of branched-chain alpha-keto acid dehydrogenase complex, mitochondrial K187C, P11182”, the abundance fitness was -0.251 ± 0.099. To “Lipoamide acyltransferase component of branched-chain alpha-keto acid dehydrogenase complex, mitochondrial K187D, P11182” belongs 0.009 ± 0.048; to “Lipoamide acyltransferase component of branched-chain alpha-keto acid dehydrogenase complex, mitochondrial K187E, P11182”, -0.133 ± 0.046. As for “Lipoamide acyltransferase component of branched-chain alpha-keto acid dehydrogenase complex, mitochondrial K187G, P11182”, the figure is -0.304 ± 0.036. To “Lipoamide acyltransferase component of branched-chain alpha-keto acid dehydrogenase complex, mitochondrial K187H, P11182” belongs -0.144 ± 0.057. Consider “Lipoamide acyltransferase component of branched-chain alpha-keto acid dehydrogenase complex, mitochondrial K187I, P11182”, for which the abundance fitness is -0.078 ± 0.076. As to “Lipoamide acyltransferase component of branched-chain alpha-keto acid dehydrogenase complex, mitochondrial K187L, P11182”, the abundance fitness was -0.126 ± 0.053. As for “Lipoamide acyltransferase component of branched-chain alpha-keto acid dehydrogenase complex, mitochondrial K187M, P11182”, the figure is -0.075 ± 0.12; as for “Lipoamide acyltransferase component of branched-chain alpha-keto acid dehydrogenase complex, mitochondrial K187N, P11182”, -0.026 ± 0.072. For “Lipoamide acyltransferase component of branched-chain alpha-keto acid dehydrogenase complex, mitochondrial K187P, P11182”, the abundance fitness worked out at 0.022 ± 0.049.

“Lipoamide acyltransferase component of branched-chain alpha-keto acid dehydrogenase complex, mitochondrial K187Q, P11182” had an abundance fitness of -0.06 ± 0.045.

Substance “Lipoamide acyltransferase component of branched-chain alpha-keto acid dehydrogenase complex, mitochondrial K187R, P11182” showed an abundance fitness of -0.04 ± 0.039. “Lipoamide acyltransferase component of branched-chain alpha-keto acid dehydrogenase complex, mitochondrial K187S, P11182” came in with an abundance fitness of -0.045 ± 0.054. As for “Lipoamide acyltransferase component of branched-chain alpha-keto acid dehydrogenase complex, mitochondrial K187T, P11182”, the figure is -0.097 ± 0.057; as for “Lipoamide acyltransferase component of branched-chain alpha-keto acid dehydrogenase complex, mitochondrial K187V, P11182”, -0.139 ± 0.099. As for “Lipoamide acyltransferase component of branched-chain alpha-keto acid dehydrogenase complex, mitochondrial K187W, P11182”, the figure is -0.538 ± 0.05; as for “Lipoamide acyltransferase component of branched-chain alpha-keto acid dehydrogenase complex, mitochondrial K196A, P11182”, -0.054 ± 0.037; as for “Lipoamide acyltransferase component of branched-chain alpha-keto acid dehydrogenase complex, mitochondrial K196C, P11182”, -0.22 ± 0.051.

For the substance “Lipoamide acyltransferase component of branched-chain alpha-keto acid dehydrogenase complex, mitochondrial K196F, P11182”, the abundance fitness is -0.408 ± 0.062. The substance “Lipoamide acyltransferase component of branched-chain alpha-keto acid dehydrogenase complex, mitochondrial K196G, P11182” yielded an abundance fitness of -0.159 ± 0.036. Regarding “Lipoamide acyltransferase component of branched-chain alpha-keto acid dehydrogenase complex, mitochondrial K196H, P11182”, the abundance fitness is -0.17 ± 0.062. To “Lipoamide acyltransferase component of branched-chain alpha-keto acid dehydrogenase complex, mitochondrial K196I, P11182” belongs -0.185 ± 0.068; to “Lipoamide acyltransferase component of branched-chain alpha-keto acid dehydrogenase complex, mitochondrial K196L, P11182”, -0.175 ± 0.04; to “Lipoamide acyltransferase component of branched-chain alpha-keto acid dehydrogenase complex, mitochondrial K196M, P11182”, -0.142 ± 0.053.

For the origin of these results see the Human Domainome abundance scans (Beltran et al. 2025).
